The source of these data is patent US20130046257A1, “METHODS OF USING AGENTS THAT MODULATE CLAUDIN EXPRESSION” (priority 2010, published 2013).

The subject of data set [1] is occludin. The data set is described as follows: Western blot of occludin in siRNA transfected PHK. The class given is cell-based, human. The following applies: 48 h. The procedure:
(§1) PHK were lysed on ice in RIPA lysis buffer (20 mM Tris, 50 mM NaCl, 2 mM EDTA, 2 mM EGTA, 1% sodium deoxycholate, 1% TX-100, and 2% SDS, pH 7.4), with 1:100 Protease Inhibitor Cocktail (Sigma), 1:100 Phosphatase Inhibitor Cocktail ([…] for 30 min at 4° C. The samples were heated at 95° C. for 10 min and then centrifuged at 14,000 rpm for 15 min. Forty μg of protein, determined by BCA (Pierce) in NuPage LDS Sample Buffer (Invitrogen) was applied to 4-12% NuPage Bis-Tris gels (Invitrogen). Electrophoresis was performed under reducing conditions with MES SDS Buffer (Invitrogen). Membranes were incubated in blotting solution (5% non-fat dry milk in PBS+0.05% Tween 20) at RT for 1 h and then incubated with primary antibodies; claudin-1 (JAY.8; Zymed), occludin (OC/3F10; Zymed) and GAPDH (FL-355; Santa Cruz). An HRP-linked secondary antibody (GE Healthcare) was used with ECL (GE Healthcare) to visualize bands by autoradiography with Kodak BioMax MR film. The pixel intensity of each band was estimated with Image J.
(§2) PHK were plated on glass coverslips at 2-3×10^5 cells/well in a 6-well plate or at 2-3×10^4 cells/filter in Transwell insert (Costar; PET membrane, 0.4 μm pore size, 6.5 mm insert) in Keratinocyte-SFM without antibiotics. […]
Background: Immunoblotting shows a protein as a band on a membrane.

The subject of data set [2] is occludin, ZO-1, nectin-1, E-cadherin, filaggrin mRNA. Kind of data set: qPCR of other barrier genes in claudin-1 siRNA transfected PHK. In kind it is cell-based, human. The following applies: siRNA 100 nM. The method, then:
(§3) QPCR was performed using the iScript™ cDNA Synthesis kit and iQ™ SYBER Green Supermix assay system (Bio-Rad Laboratories). All PCR amplifications were carried out in triplicate on an iQ5 Multicolor real-time PCR detection system (Bio-Rad). Primers were designed and synthesized by Integrated
(§4) DNA Technologies (Table 1). Relative gene expression was calculated by using the 2^−ΔΔCt method. Livak and Schmittgen, “Analysis of Relative Gene Expression Data Using Real-Time Quantitative PCR and the 2(-Delta Delta C(T)) Method,” Methods 25:402-8 (2001), which is hereby incorporated by reference in its entirety. The normalized Ct value of each sample was calculated using GAPDH as an endogenous control gene.
Reverse transcription was performed from total RNA using iScript™ cDNA Synthesis kit (Bio-Rad) according to the manufacturer's protocol. qPCR was performed using the iQ™ SYBER Green Supermix assay system from Bio-Rad Laboratories. All PCR amplifications were carried out in triplicate on an iQ5 Multicolor real-time PCR detection system (Bio-Rad). Primers were designed and synthesized by Integrated DNA Technologies. Primers used in the study: GAPDH (forward: SEQ ID NO: 16 and reverse: SEQ ID NO: 17); Cldn-1 (forward: (SEQ ID NO:18 and reverse: SEQ ID NO:19); PVRL1 (Nectin1; forward: SEQ ID NO:28 and reverse SEQ ID NO:29).
Relative gene expression was calculated by using the […] method, in which Ct indicates cycle threshold, the fractional cycle number where the fluorescent signal reaches detection threshold. Livak and Schmittgen, “Analysis of Relative Gene Expression Data Using Real-Time Quantitative PCR and the 2(-Delta Delta C(T)) Method,” Methods 25:402-8 (2001), which is hereby incorporated by reference in its entirety. The normalized Ct value of each sample was calculated using GAPDH as an endogenous control gene.

Data set [3] has as its system claudin-1. Kind of data set: Western blot of claudin-1 in siRNA transfected PHK. The following applies: 48 h. The class given is cell-based, human. The method, then: as §1, §2
Data set [4] relates to primary human keratinocytes (PHK). The data set is described as follows: Trans Epithelial Electric Resistance (TEER) of PHK. The class given is cell-based. The method, then:
Human keratinocytes were isolated from neonatal foreskin. Poumay et al., “Basal Detachment of the Epidermis Using Dispase: Tissue Spatial Organization and Fate of Integrin Alpha 6 Beta 4 and Hemidesmosomes,” J. Invest. Dermatol. 102:111-7 (1994), which is hereby incorporated by reference in its entirety. PHK were cultured in Keratinocyte-SFM (Invitrogen/Gibco) with 1% Pen/Strep, 0.2% Amphotericin B (Invitrogen/Gibco). To differentiate PHK, cells were grown in DMEM (Invitrogen/Gibco) with 10% heat-inactivated fetal bovine serum (Invitrogen/Gibco) and 1% Pen/Strep, 0.2% Amphotericin B (Invitrogen/Gibco). For TJ modulation experiments, the following cytokines were added alone or in combination to the differentiation media; human IL-4 (50 ng/ml; R&D system) and IL-13 (50 ng/ml; R&D system).
PHK were plated at a subconfluent density of 2.5−3×10^4 cells/filter in Transwell insert and cultured in Keratinocyte-SFM media until confluent. TEER was measured using an EVOMX voltohmmeter (World Precision Instruments, Sarasota, Fla.). The resistance of cell-free filters was subtracted from each experimental value.
PHK were plated on glass coverslips at 2-3×10^5 cells/well in a 6-well plate or at 2-3×10^4 cells/filter in Transwell insert (Costar; PET membrane, 0.4 μm pore size, 6.5 mm insert) in Keratinocyte-SFM without antibiotics. The next day after plating, cells were transfected with claudin-1 specific or control (scrambled) siRNAs (Santa Cruz) using Lipofectamine™ 2000 transfection Reagent (Invitrogen). TEER and permeability experiments were conducted 48 hours after PHK were switched to differentiation media.
TEER was measured in PHK as described above. PHK were stimulated with S. aureus-derived peptidoglycan (PGN, 0.2-20 μg/ml, n=3-7) (FIG. 19A), Malp-2 (10-1000 ng/ml, n=3) (FIG. 19B), and Pam3CSK4 a TLR1/2 ligand (0.01-20 μg/ml, n=3-6) (FIG. 19C). Data are presented by analyzing the area under the TEER curve and normalized to the mean values for the control group (media alone)*p<0.05; **p<0.01.

Data set [5] has as its system claudin-1 transcripts. The data set is described as follows: qPCR of claudin-1 transcripts in PHK transfected with claudin-1 siRNA. The class given is cell-based, human. The following applies: siRNA 100 nM, 2^-ΔΔCt, GAPDH normalised, listed as Cldn1 siRNA. The method, then:
as §3, §4, §2
siRNA approach was used to selectively downregulate claudin-1 in primary human keratinocytes (PHK). […] Relative gene expressions were calculated by using the 2^−ΔΔCt method, in which Ct indicates cycle threshold, the fractional cycle number where the fluorescent signal reaches detection threshold. The normalized Ct value of each sample was calculated using GAPDH as endogenous control gene. […]

“Also recorded” adds a separate entry of the source. Where only a bound is given, the exact number is not on record here.

Sequence of claudin-1 (O95832 whole entry): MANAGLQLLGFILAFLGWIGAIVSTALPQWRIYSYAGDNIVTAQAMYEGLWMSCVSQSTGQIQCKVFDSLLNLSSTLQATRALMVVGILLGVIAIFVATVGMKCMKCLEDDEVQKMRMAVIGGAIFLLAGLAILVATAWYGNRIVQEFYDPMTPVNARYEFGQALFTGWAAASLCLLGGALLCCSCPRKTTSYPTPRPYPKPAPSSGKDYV

B1: CLDN1 siRNA: claudin-1 siRNA (h), Santa Cruz; a pool of 3 separate strands, SEQ ID NO: 10-15 (nucleic acid)
chain 1: UACAUAGGCAUAGUUCAUGNN
chain 2: CAUGAACUAUGCCUAUGUANN
chain 3: AACGUAUGCAGUUAAUUCCNN
chain 4: GGAAUUAACUGCAUACGUUNN
chain 5: UGAAGAUCUAUGUAUGUGGNN
chain 6: CCACAUACAUAGAUCUUCANN
modifications: chemistry not given here
As for B1, the “occludin protein by Western blot” value in data set [1] was “No change”. Besides, in data set [2], the “effect on nectin-1 mRNA expression” value is reported as “not affected; also recorded: no effect”. Besides, in data set [2] (n=5/group), the “effect on mRNA expression of occludin, ZO-1, nectin-1, E-cadherin or filaggrin” value is listed as “no effect” and the “nectin-1 (PVRL1) mRNA relative expression” value came to 0.99±0.16. Moreover, in data set [3], the “claudin-1 protein by Western blot” value is reported as “dose-dependent reduction”. Moreover, in data set [3] (Western blot, dose-dependent), the “decrease in claudin-1 protein expression compared to scrambled siRNA-transfected cells” value is at most 60%. Also, the “TEER (FIG. 12C legend)” value in data set [4] (CLDN1 siRNA, PHK, n=4) was found to be 80.6±6.4. For the same molecule, in data set [4] (siRNA 100 nM, PHK 48 hours after switch to differentiation media, n=4), the TEER is given as 80.6±6.4 ohms×cm^2. For the same molecule, the “drop in TEER” value in data set [4] (siRNA 100 nM, vs scrambled siRNA-transfected PHK) was at least 50%. The “claudin-1 transcripts, fold of control transfected cells” value in data set [5] is recorded as 0.5%±0.06 fold.
